B1: CPP-RRM3: recombinant RRM3 (441-500) conjugated with the Penetratin cell penetrating peptide, myc tag (SEQ ID NO: 32) (protein)
chain: RQIKIWFQNRRMKWKKGWDTEIKDDVIEECNKHGGVIHIYVDKNSAQGNVYVKCPSIAAAIAAVNALHGRWFAGKMTAAYVPEQKLISEEDL
modifications: RRM3-derived synthetic sequence
B2: RRM3: recombinant RRM3 (441-500)-myc peptide without Penetratin (SEQ ID NO: 33) (protein)
chain: GWDTEIKDDVIEECNKHGGVIHIYVDKNSAQGNVYVKCPSIAAAIAAVNALHGRWFAGKMTAAYVPEQKLISEEDL
modifications: RRM3-derived synthetic sequence

Tests used:
T47D cells = assay: Crystal violet assay / cell counts of T47D cells treated with cell penetrating peptides; assay type: cell-based, human; settings: 5 μM peptide in media, 72 hrs
Description: FIG. 9. […] A) Amino acid sequences of CPP-RRM1-myc, and RRM3-(441-500)-myc (SEQ ID NO: 33) and CPP-RRM3 (441-500)-myc (SEQ ID NO: 32) peptides. The sequence of Penetratin is in grey, myc tag in light grey and RRM3 in black. B) Coomassie staining showing GST-tagged, purified proteins. C, D) Representative light microscopic images of crystal violet stained cells taken after 3 days of treatment with 5 uM CPP-RRM3 (441-500)-myc. E, F) Crystal violet assay of cell numbers during treatment with 5 uM CPP-RRM3 (441-500) myc. G) Quantification of total number of cells before and after 3 days of treatment with CPP RRM3. H, I, J) Representative light microscopic images of crystal violet stained T47D cells taken after 3 days of treatment with peptides listed at top. K, L, M) Crystal violet assay of number T47D cells over 3 days of treatment with peptides listed. N) Quantification of total number of T47D cells before and after 3 days of treatment.
(§1) Crystal violet assay/optical density method of cell quantitation: 5×10^5 cells were plated per well in 6-well tissue culture plates. At times indicated cells were washed with PBS and fixed for 10 minutes in a 10% formalin solution. Cells were then rinsed with distilled water and subsequently stained with 100 μl 0.1% crystal violet solution for 30 min. Stained cells were rinsed with water to remove the excess traces of the staining solution. Cell-associated crystal violet dye was extracted with 500 μl of 10% acetic acid. Aliquots were collected and optical density was measured at 590 nm wavelength. Each point on the curve shown represents 3 independent wells.
(§2) Cell counts for CPP treatments: Cells were plated in 6-well dishes and incubated with 5 μM concentration of peptides. At days noted, cells were trypsinized and counted using a hemocytometer.
Whether recombinant RRM3 conjugated with the Penetratin cell penetrating peptide (Dupont E, et al., Methods Mol Biol. 1324:29-37 (2015)) (FIGS. 9A, B) affects growth of T47D and PME cells was tested. Equal numbers of PME and T47D cells were seeded and incubated with 5 μM peptide in media for 72 hrs. […]

PME cells = assay: Crystal violet assay / cell counts of primary mammary epithelial cells (PMEs) treated with cell penetrating peptides; assay type: cell-based, human; settings: PME cells, 5 μM peptide in media, 72 hrs
Description: as §1, §2
Whether recombinant RRM3 conjugated with the Penetratin cell penetrating peptide (Dupont E, et al., Methods Mol Biol. 1324:29-37 (2015)) (FIGS. 9A, B) affects growth of T47D and PME cells was tested. Equal numbers of PME and T47D cells were seeded and incubated with 5 μM peptide in media for 72 hrs. […] Compared to CPP-coupled RRM3, CPP-RRM1 and RRM3 had no effect (FIGS. 9H-N). […]

Molecule	number of breast cancer cells (T47D cells)	number of breast cancer cells (T47D cells; listed as Cell-penetrating CAPERα RRM3)	number of PMEs (PME cells)
B1	dramatically decreased	disrupts breast cancer cell growth	no effect
B2	no effect	–	–

From patent US20220265769A1, “COMPOSITIONS AND METHODS OF TREATMENT FOR BREAST CANCER INVOLVING A NOVEL CAPER?-MLL1 COMPLEX” (Geisinger Health, priority 2019, published 2022)
